Experimental data published in PMC5872582.

Target: L1 ORF1p-T7 (T7-tagged ORF1 protein expressed from the L1 construct pAD2TE1) (human) (UniProt Q9UN81)
Assay: co-IP; 293T cells cotransfected with pAD2TE1 and the partner; lysis 48 h posttransfection in 160 mM NaCl, 50 mM Tris-HCl pH 7.5, 1 mM EDTA, […] NP-40 with RNaseOUT; ORF1p-T7 precipitated with anti-T7 monoclonal antibody on magnetic beads; immunoblot; signals normalized on T7 signal in IP and myc signal in WCL

UniProt Q9UN81, sequence (Q9UN81 whole entry): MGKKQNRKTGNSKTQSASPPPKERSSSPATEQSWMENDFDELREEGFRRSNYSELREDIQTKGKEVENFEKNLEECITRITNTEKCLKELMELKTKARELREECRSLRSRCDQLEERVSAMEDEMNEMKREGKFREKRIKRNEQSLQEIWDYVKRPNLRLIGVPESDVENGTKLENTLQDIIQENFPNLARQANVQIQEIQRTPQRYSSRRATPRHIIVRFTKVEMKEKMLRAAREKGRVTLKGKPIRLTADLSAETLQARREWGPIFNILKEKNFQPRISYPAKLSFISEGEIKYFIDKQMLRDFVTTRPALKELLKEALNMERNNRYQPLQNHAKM

normalized densitometric intensity of the co-precipitated band | Substance
24% | human SAMHD1 T592D, myc-tagged (from UniProt Q9Y3Z3 1-626) (natural protein)
100% | human SAMHD1 T592A, myc-tagged (from UniProt Q9Y3Z3 1-626) (natural protein)
